One may read the Tm as the temperature at which the thermal transition is half complete.

Where “and” joins values, the source holds several entries; their conditions need not be identical. Equal entries are not always repeated.

For this series the following is noted: whole UniProt chain shown.
Where [1] appears, read: Streptomyces tendae, pH 2, Thermal, DSC, Sodium phosphate 10 mM, Na2SO4 10 mM, reversible: yes.
Setting [2] is: Streptomyces tendae, pH 5, 25 °C, Thermal, DSC, Sodium phosphate 10 mM, Na2SO4 10 mM, reversible: yes.
Setting [3] is: Streptomyces tendae, pH 7, Thermal, DSC, Sodium phosphate 10 mM, Na2SO4 10 mM, reversible: yes.
[4] abbreviates: Staphylococcus aureus, pH 7, 30 °C, GdnHCl, CD, Sodium phosphate/Sodium sulfate 1.0 mM/10 mM/, reversible: yes.
Setting [5] is: Staphylococcus aureus, pH 7, Thermal, DSC, phosphate 100 mM, reversible: yes(75%).
The mark [6] stands for this setting: Staphylococcus aureus, pH 7.5, 25 °C, Urea, CD, Tris-HCl 0.1 M, KCl 0.2 M, reversible: yes.
The mark [7] stands for this setting: Thermus thermophilus (strain ATCC 27634 / DSM 579 / HB8), pH 7.4, 29 °C, Thermal, CD, Potassium phosphate 50 mM, reversible: Yes.
[8] abbreviates: Thermus thermophilus (strain ATCC 27634 / DSM 579 / HB8), pH 7.4, 35 °C, Thermal, CD, Potassium phosphate 50 mM, reversible: Yes.
Setting [9] is: Thermus thermophilus (strain ATCC 27634 / DSM 579 / HB8), pH 7.4, Thermal, absorbance, Potassium buffer.
The mark [10] stands for this setting: Sus scrofa, pH 6.5, 20 °C, GdnHCl, Fluorescence, MES-NaOH 20 mM, NaCl 100 mM, reversible: yes.

B1: Pilin wild type, Q9A1S2 (protein)
chain: MKLRHLLLTGAALTSFAATTVHGETVVNGAKLTVTKNLDLVNSNALIPNTDFTFKIEPDTTVNEDGNKFKGVALNTPMTKVTYTNSDKGGSNTKTAEFDFSEVTFEKPGVYYYKVTEEKIDKVPGVSYDTTSYTVQVHVLWNEEQQKPVATYIVGYKEGSKVPIQFKNSLDSTTLTVKKKVSGTGGDRSKDFNFGLTLKANQYYKASEKVMIEKTTKGGQAPVQTEASIDQLYHFTLKDGESIKVTNLPVGVDYVVTEDDYKSEKYTTNVEVSPQDGAVKNIAGNSTEQETSTDKDMTITFTNKKDFEVPTGVAMTVAPYIALGIVAVGGALYFVKKKNA
For the protein B1, the Tm (Streptococcus pyogenes serotype M1, pH 8, Thermal, CD, potassium phosphate buffer 10 mM, transition: 2) is 85.1 °C.

B2: Alpha-amylase inhibitor HOE-467A wild type, P01092 (protein)
chain: MRVRALRLAALVGAGAALALSPLAAGPASADTTVSEPAPSCVTLYQSWRYSQADNGCAQTVTVKVVYEDDTEGLCYAVAPGQITTVGDGYIGSHGHARYLARCL
Regarding B2, under setting [1], the Tm is 68.3 °C, the “heat capacity change of unfolding” value was 0.69 kcal/mol/K and the “unfolding enthalpy (calorimetric)” value stood at 56.4 kcal/mol. In addition, under setting [2], the “heat capacity change of unfolding” value amounted to 0.69 kcal/mol/K, the “unfolding enthalpy (calorimetric)” value is 26.3 kcal/mol and the unfolding free energy was 6.7 kcal/mol. Under setting [3], the Tm came out at 81.6 °C, the “heat capacity change of unfolding” value worked out at 0.69 kcal/mol/K and the “unfolding enthalpy (calorimetric)” value was 65.6 kcal/mol.

B3: wild type, Q9EYL5 (protein)
chain: MTKKLLTLFIVSMLILTACGKKESATTSSKNGKPLVVVYGDYKCPYCKELDEKVMPKLRKNYIDNHKVEYQFVNLAFLGKDSIVGSRASHAVLMYAPKSFLDFQKQLFAAQQDENKEWLTKELLDKHIKQLHLDKETENKIIKDYKTKDSKSWKAAEKDKKIAKDNHIKTTPTAFINGEKVEDPYDYESYEKLLKDKIK
Take B3: the “denaturant midpoint (higher = more stable)” value was 1.66 M under setting [4]; 4.2 M and 5.6 M and 5.62 M under setting [6]. The unfolding free energy runs as follows: under setting [4], 8 kcal/mol; (Staphylococcus aureus, pH 7, 30 °C, Thermal, DSC, phosphate 100 mM, reversible: yes(75%)) 11.6 kcal/mol and 15.8 kcal/mol; (Staphylococcus aureus, pH 7, 30 °C, Thermal, Fluorescence, Sodium phosphate 100 mM, EDTA 1 mM, reversible: yes) 11.1 kcal/mol; (Staphylococcus aureus, pH 7, 30 °C, Thermal, Fluorescence, Sodium phosphate 100 mM, reversible: yes) 7 kcal/mol; (Staphylococcus aureus, pH 7, 30 °C, Thermal, Fluorescence, phosphate 100 mM, reversible: yes(75%)) 8.29 kcal/mol and 12.6 kcal/mol; under setting [6], 8.7 kcal/mol and 12.3 kcal/mol and 12.9 kcal/mol. Moreover, the Tm under setting [5] was 68.4 °C. Further, under setting [5], the “heat capacity change of unfolding” value was found to be 2.22 kcal/mol/K. Moreover, under setting [5], the “unfolding enthalpy (calorimetric)” value is 148 kcal/mol. Moreover, the “unfolding enthalpy (van 't Hoff)” value under setting [5] amounted to 137 kcal/mol.

B4: Scaffolding protein wild type, P26748 (protein)
chain: MEPTTEIQATEDLTLSGDHAAASADSLVVDNANDNAGQEEGFEIVLKDDETAPKQDPAKNAEFARRRIERKRQRELEQQMEAVKRGELPESLRVNPDLPPQPDINAYLSEEGLAKYDYDNSRALAAFNAANTEWLMKAQDARSNAVAEQGRKTQEFTQQSAQYVEAARKHYDAAEKLNIPDYQEKEDAFMQLVPPAVGADIMRLFPEKSAALMYHLGANPEKARQLLAMDGQSALIELTRLSERLTLKPRGKQISSAPPADQPITGDVSAANKDAIRKQMDAAASKGDVETYRKLKAKLKGIR
B4: under “Salmonella phage P22, pH 7.6, Thermal, Fluorescence, phosphate 0.3 micro M, NaCl 0.3 micro M”, the Tm turned out to be 58 °C.

B5: wild type, Q53W59 (protein)
chain: MKRLSLREAWPYLKDLQQDPLAVLLEWGRAHPRLFLPLPRFPLALIFDPEGVEGALLAEGTTKATFQYRALSRLTGRGLLTDWGKSWKEARKALKDPFLPKSVRGYREAMEEEAWAFFGEWRGEERDLDHEMLALSLRLLGRALFGKPLSPSLAEHALKALDRIMAQTRSPLALLDLAAEARFRKDRGALYREAEALIVHPPLSHLPRERALSEAVTLLVAGHETVASALTWSFLLLSHRPDWQKRVAESEEAALAAFQEALRLYPPAWILTRRLERPLLLGEDRLPQGTTLVLSPYVTQRLYFPEGEAFQPERFLAERGTPSGRYFPFGLGQRLCLGRDFALLEGPIVLRAFFRRFRLDPLPFPRVLAQVTLRPEGGLPARPREGVRA
Turning to B5, under setting [7], the “heat capacity change of unfolding” value worked out at 1.15 kcal/mol/K, the “unfolding enthalpy (van 't Hoff)” value came out at 71 kcal/mol and the unfolding free energy amounted to 5.74 kcal/mol. Besides, under setting [8], the “heat capacity change of unfolding” value was 1.17 kcal/mol/K, the “unfolding enthalpy (van 't Hoff)” value was 61.7 kcal/mol and the unfolding free energy was 4.3 kcal/mol. In addition, under “Thermus thermophilus (strain ATCC 27634 / DSM 579 / HB8), pH 7.4, Thermal, CD, Potassium phosphate 50 mM, reversible: Yes”, the melting temperature (Tm) was 87 °C and 83.7 °C. Also, under setting [9], the Tm was 88 °C, the “heat capacity change of unfolding” value stood at 1.14 kcal/mol/K and the “unfolding enthalpy (calorimetric)” value was found to be 71 kcal/mol.

B6: Inorganic pyrophosphatase wild type, P50308 (protein)
chain: MKLSPGKNAPDVVNVLVEIPQGSNIKYEYDDEEGVIKVDRVLYTSMNYPFNYGFIPGTLEEDGDPLDVLVITNYQLYPGSVIEVRPIGILYMKDEEGEDAKIVAVPKDKTDPSFSNIKDINDLPQATKNKIVHFFEHYKELEPGKYVKISGWGSATEAKNRIQLAIKRVSGGQ
B6: the Tm runs as follows: (Sulfolobus acidocaldarius (strain ATCC 33909 / DSM 639 / JCM 8929 / NBRC 15157 / NCIMB 11770), pH 7, Thermal, CD, HEPES 20 mM, MgCl2 5 mM) 98 °C; (Sulfolobus acidocaldarius (strain ATCC 33909 / DSM 639 / JCM 8929 / NBRC 15157 / NCIMB 11770), pH 7, Thermal, CD, HEPES 20 mM) 89 °C.

B7: Glutathione S-transferase omega-1 wild type, Q9N1F5 (protein)
chain: MSGGSARSLGKGSAPPGPVPEGLIRVYSMRFCPFAQRTLLVLNAKGIRHQVININLKNKPEWFFQKNPSGLVPVLENSQGQLIYESAITCEYLDEAYPGKKLLPDDPYEKACQKMVFELSSKVPPLLIRFIRRENEADCSGLKEELRKEFSKLEEVLTKKKTTYFGGSSLSMIDYLIWPWFERLEALELNECIDHTPKLKLWMAAMMKDPAVSALHIEPRDLRAFNDLYLQNSPEACDYGL
For the protein B7, the denaturant m value under setting [10] is 11.1 kcal/mol/M and the denaturant m value (Sus scrofa, pH 6.5, 20 °C, Urea, Fluorescence, MES-NaOH 20 mM, NaCl 100 mM, reversible: yes) was 4.6 kcal/mol/M. In addition, under setting [10], the unfolding free energy is 23.3 kcal/mol.

B8: Streptogrisin-B wild type, P00777 (protein)
chain: MRIKRTSNRSNAARRVRTTAVLAGLAAVAALAVPTANAETPRTFSANQLTAASDAVLGADIAGTAWNIDPQSKRLVVTVDSTVSKAEINQIKKSAGANADALRIERTPGKFTKLISGGDAIYSSTGRCSLGFNVRSGSTYYFLTAGHCTDGATTWWANSARTTVLGTTSGSSFPNNDYGIVRYTNTTIPKDGTVGGQDITSAANATVGMAVTRRGSTTGTHSGSVTALNATVNYGGGDVVYGMIRTNVCAEPGDSGGPLYSGTRAIGLTSGGSGNCSSGGTTFFQPVTEALSAYGVSVY
As to B8, the unfolding free energy (Streptomyces griseus, pH 5, 0 °C, GdnHCl, Fluorescence, potassium acetate 10 mM) was found to be 0.71 kcal/mol.

B9: Methylated-DNA--protein-cysteine methyltransferase wild type, Q97VW7 (protein)
chain: MLVYGLYKSPLGYITVAKDDKGFIMLDFCDCVEGNSRDDSSFTEFFHKLDLYFEGKPINLREPINLKTYPFRLSVFKEVMKIPWGKVMTYKQIADSLGTSPRAVGMALSKNPILLIIPCHRVIAENGIGGYSRGVKLKRALLELEGVKIPE
With B9, the Tm (Saccharolobus solfataricus (strain ATCC 35092 / DSM 1617 / JCM 11322 / P2), pH 7.4, Thermal, DSF, PBS, transition: 2) came to 82.9 °C.

Values taken from FireProtDB.
